Tests used:
PI3Kγ = assay: Gβ1γ2-dependent activation of purified p101/p110 PI3Kγ; format: biochemical; settings: Table 5; read-out: PI3Kγ IC50
Protocol: (§1) Purified PLCβ2 (0.25 ng) was assayed in the presence (▴) or absence (▪) of 100 nM purified Gβ1γ2. […] Assays contained 10 ng of purified p101/p110 PI3Kγ heterodimer with or without 100 nM purified Gβ1γ2. Left panel: (▴) 100 nM Gβ1γ2 or (▪) no βγ. […] M119 or M201 and 25 nM purified GRK2 were added simultaneously to 250 nM biotinylated Gβ1γ2 (bGβ1γ2) immobilized on streptavidin agarose. GRK2 was detected with antibody to GRK2. Data are representative (mean ±SEM, except D) repeated at least three times each. […] 30 nM bGβ1γ2 was incubated with either 30 nM PLCβ2 or PLCβ3 in the presence or absence of M119 or M201 for 16 h at 4° C. before precipitation with avidin agarose and detection with PLCβ2,or Gβ antibodies. […] Same as 4E with PLCβ3.
(§2) Nevertheless, M119 and M201 were tested in in vitro reconstitution assays of Gβγ-dependent activation of PLCβ2, PLCβ3 and PI3Kγ and binding to GRK2. […] These are only two of multiple diverse compounds identified, indicating potential for multiple modes of Gβγ-dependent target modulation by these small molecules.

Gβ1γ2 (Gβ1 mutants) [1] = molecular target: T1, Gβ1γ2 (Gβ1 mutants) (UniProt P54311+P63212, H311A); assay: Phage ELISA: binding of peptide-displaying phage to wild-type or alanine-substituted b-βγ; design: species or system rat; settings: Gβ1 His311Ala; mean ± SD
T1 construct: made in house; host or cells: Sf9 insect cells (baculovirus), partially purified via (His)6-Gαi1 on Ni-NTA
Description: (§3) Wild-type Gβ1 and Gp1 mutants were made in the baculovirus vector PDW464 which encodes a biotinylation site at a lysine upstream of the amino terminus of Gβ1 (Goubaeva, et al. (2003) supra). Mutants were generated by overlap extension PCR using standard protocols. The wild-type and mutant Gβ1 constructs consisted of a 20 amino acid biotin acceptor peptide (BAP) sequence fused in-frame with the amino-terminus of rat Gβ1 subunit. When coexpressed with biotin holoenzyme synthetase (BirA) in Sf9 cells, the Gβ1 subunit becomes covalently biotinylated in vivo at the specific lysine acceptor residue in the BAP. Using this approach, 1-2 mg protein of purified protein can be obtained per liter of Sf9 insect cells. As 45 ng of protein is used in the phage ELISA assay, a single purification is sufficient for 10,000 to 30,000 binding assays.
(§4) Phage ELISA assays used to assess peptide binding to wild-type and mutant b-βγ were performed according to standard methods (Smrcka and Scott (2002) Methods Enzymol. 344:557-76). Briefly, 1 μg streptavidin was immobilized in the well of a […] overnight at 4° C. The wells were blocked with 100 μL of 2% bovine serum albumin (BSA) in Tris-buffered saline (TBS) for 1 hour at 4° C. followed by three washes of IX TBS/0.5% TWEEN®. Forty μL of 25 nM bGβ1γ2 in TBS/0.5% TWEEN® was added to each well and incubated at 4° C. for 1.5 hour. The wells were washed, followed by the addition of IxIO^6 to IxIO^10 phage particles and incubated at 4° C. for 3 hours. The wells were then washed six times with TBS/0.5% TWEEN® followed by addition of 40 μL of 1:5000 dilution of anti-M13 antibody (Pharmacia, Uppsala, Sweden) and incubated at room temperature for 1 hour. The wells were washed, followed by the addition of 40 μL of (2,2′-Azino-bis (3-ethylbenzthiazoline)-6-sulfonic acid (ABTS) and the colorimetric reaction was monitored at 405 nm. Nonspecific binding was subtracted for each reading.
(§5) The nine peptides were selected to represent the different consensus groups of peptides previously identified (See Scott et al. (2001) supra; Table 15) and to compare binding characteristics within and between consensus groups. […] As disclosed herein, the binding signal obtained in the ELISA assay was correlated to a loss in affinity by comparing the results to behavior of the peptide in a solution based assay. […] For the purposes of present disclosure, any substitution that decreased the binding to less than 20% of the wild-type binding was considered to be a critical binding contact for that peptide.

Gβ1γ2 (Gβ1 mutants) [2] = molecular target: T2, Gβ1γ2 (Gβ1 mutants) (UniProt P54311+P63212, R314A); assay: as above; design: species or system rat; settings: Gβ1 Arg314Ala; mean ± SD
T2 construct: made in house; host or cells: Sf9 insect cells (baculovirus), partially purified via (His)6-Gαi1 on Ni-NTA
Description: as §3, §4, §5

Gβ1γ2 (Gβ1 mutants) [3] = molecular target: T3, Gβ1γ2 (Gβ1 mutants) (UniProt P54311+P63212, W99A); assay: as above; design: species or system rat; settings: Gβ1 Trp99Ala; mean ± SD
T3 construct: made in house; host or cells: Sf9 insect cells (baculovirus), partially purified via (His)6-Gαi1 on Ni-NTA
Description: as §3, §4, §5

Gβ1γ2 (Gβ1 mutants) [4] = molecular target: T4, Gβ1γ2 (Gβ1 mutants) (UniProt P54311+P63212, Y59A); assay: as above; design: species or system rat; settings: Gβ1 Tyr59Ala; mean ± SD
T4 construct: made in house; host or cells: Sf9 insect cells (baculovirus), partially purified via (His)6-Gαi1 on Ni-NTA
Description: as §3, §4, §5

Gβ1γ2 (Gβ1 mutants) [5] = molecular target: T5, Gβ1γ2 (Gβ1 mutants) (UniProt P54311+P63212, N230A); assay: as above; design: species or system rat; settings: Gβ1 Asn230Ala; mean ± SD
T5 construct: made in house; host or cells: Sf9 insect cells (baculovirus), partially purified via (His)6-Gαi1 on Ni-NTA
Description: as §3, §4, §5

Gβ1γ2 (Gβ1 mutants) [6] = molecular target: T6, Gβ1γ2 (Gβ1 mutants) (UniProt P54311+P63212, M101A); assay: as above; design: species or system rat; settings: Gβ1 Met101Ala; mean ± SD
T6 construct: made in house; host or cells: Sf9 insect cells (baculovirus), partially purified via (His)6-Gαi1 on Ni-NTA
Description: as §3, §4, §5

Gβ1γ2 (Gβ1 mutants) [7] = molecular target: T7, Gβ1γ2 (Gβ1 mutants) (UniProt P54311+P63212, D246S); assay: as above; design: species or system rat; settings: Gβ1 Asp246Ser; mean ± SD
T7 construct: made in house; host or cells: Sf9 insect cells (baculovirus), partially purified via (His)6-Gαi1 on Ni-NTA
Description: as §3, §4, §5

Gβ1γ2 (Gβ1 mutants) [8] = molecular target: T8, Gβ1γ2 (Gβ1 mutants) (UniProt P54311+P63212, Y145A); assay: as above; design: species or system rat; settings: Gβ1 Tyr145Ala; mean ± SD
T8 construct: made in house; host or cells: Sf9 insect cells (baculovirus), partially purified via (His)6-Gαi1 on Ni-NTA
Description: as §3, §4, §5

Gβ1γ2 (Gβ1 mutants) [9] = molecular target: T9, Gβ1γ2 (Gβ1 mutants) (UniProt P54311+P63212, L117A); assay: as above; design: species or system rat; settings: Gβ1 Leu117Ala; mean ± SD
T9 construct: made in house; host or cells: Sf9 insect cells (baculovirus), partially purified via (His)6-Gαi1 on Ni-NTA
Description: as §3, §4, §5

Gβ1γ2 (Gβ1 mutants) [10] = molecular target: T10, Gβ1γ2 (Gβ1 mutants) (UniProt P54311+P63212, W332A); assay: as above; design: species or system rat; settings: Gβ1 Trp332Ala; mean ± SD
T10 construct: made in house; host or cells: Sf9 insect cells (baculovirus), partially purified via (His)6-Gαi1 on Ni-NTA
Description: as §3, §4, §5

Gβ1γ2 (Gβ1 mutants) [11] = molecular target: T11, Gβ1γ2 (Gβ1 mutants) (UniProt P54311+P63212, D186A); assay: as above; design: species or system rat; settings: Gβ1 Asp186Ala; mean ± SD
T11 construct: made in house; host or cells: Sf9 insect cells (baculovirus), partially purified via (His)6-Gαi1 on Ni-NTA
Description: as §3, §4, §5

Gβ1γ2 (Gβ1 mutants) [12] = molecular target: T12, Gβ1γ2 (Gβ1 mutants) (UniProt P54311+P63212, M188A); assay: as above; design: species or system rat; settings: Gβ1 Met188Ala; mean ± SD
T12 construct: made in house; host or cells: Sf9 insect cells (baculovirus), partially purified via (His)6-Gαi1 on Ni-NTA
Description: as §3, §4, §5

Gβ1γ2 (Gβ1 mutants) [13] = molecular target: T13, Gβ1γ2 (Gβ1 mutants) (UniProt P54311+P63212, K57A); assay: as above; design: species or system rat; settings: Gβ1 Lys57Ala; mean ± SD
T13 construct: made in house; host or cells: Sf9 insect cells (baculovirus), partially purified via (His)6-Gαi1 on Ni-NTA
Description: as §3, §4, §5

PLCβ3 = assay: Gβ1γ2-dependent activation of purified PLCβ3; format: biochemical; settings: Table 4; read-out: PLC β3 IC50
Protocol: as §1
The ability of NSC119910 analogs to selectively modulate activation PLC-β2 and -β3 was analyzed. In this assay, PLC-β2 and PLC-β3 were purified and PLC enzymatic activity was measured in the presence or absence of purified βy and in the presence or absence of analog.
as §2

Molecule | IC50 (PI3Kγ) [µM] | % of Wild-Type Signal (Gβ1γ2 (Gβ1 mutants) [1]) [%] | % of Wild-Type Signal (Gβ1γ2 (Gβ1 mutants) [2]) [%] | % of Wild-Type Signal (Gβ1γ2 (Gβ1 mutants) [3]) [%] | % of Wild-Type Signal (Gβ1γ2 (Gβ1 mutants) [4]) [%] | % of Wild-Type Signal (Gβ1γ2 (Gβ1 mutants) [5]) [%] | % of Wild-Type Signal (Gβ1γ2 (Gβ1 mutants) [6]) [%] | % of Wild-Type Signal (Gβ1γ2 (Gβ1 mutants) [7]) [%] | % of Wild-Type Signal (Gβ1γ2 (Gβ1 mutants) [8]) [%] | % of Wild-Type Signal (Gβ1γ2 (Gβ1 mutants) [9]) [%] | % of Wild-Type Signal (Gβ1γ2 (Gβ1 mutants) [10]) [%] | % of Wild-Type Signal (Gβ1γ2 (Gβ1 mutants) [11]) [%] | % of Wild-Type Signal (Gβ1γ2 (Gβ1 mutants) [12]) [%] | % of Wild-Type Signal (Gβ1γ2 (Gβ1 mutants) [13]) [%] | IC50 (PLCβ3) [µM]
Nc1ccc(-c2ccc(Nc3cc(S(=O)(=O)O)c(N)c4c3C(=O)c3ccccc3C4=O)cc2)c(S(=O)(=O)O)c1 [drawing 65] | 16 |  |  |  |  |  |  |  |  |  |  |  |  |  | 
SCEKRYGIEFCT [Compound C4] |  | 36.5 ± 8.3 | 1.4 ± 1.0 | 67.0 ± 15.2 | 7.6 ± 9.6 | 11.5 ± 6.0 | 61.2 ± 30.9 | 35.8 ± 7.4 | 4.4 ± 3.8 | 18.4 ± 7.1 | 1.7 ± 3.0 | 51.3 ± 15.0 | 127.5 ± 22.4 | −0.2 ± 1.9 | 
SIGKALFILGYPDYD [Compound 3.14] |  | 93.4 ± 21.5 | 50.2 ± 5.0 | 66.0 ± 7.7 | 24.7 ± 15.2 | 22.4 ± 4.2 | 26.8 ± 12.5 | 66.5 ± 7.5 | 0.8 ± 0.9 | 2.1 ± 2.4 | 7.1 ± 3.7 | 14.4 ± 13.4 | 2.5 ± 3.7 | 18.6 ± 4.6 | 
Nc1cccc(Nc2cc(S(=O)(=O)O)c(N)c3c2C(=O)c2ccccc2C3=O)c1 [drawing 60] |  |  |  |  |  |  |  |  |  |  |  |  |  |  | 15
SCGHGLKVQSTIGACA [Compound 3C] |  | 30.5 ± 18.9 | 8.3 ± 3.6 | −0.5 ± 5.9 | 8.5 ± 6.4 | 4.1 ± 4.4 | −4.2 ± 5.5 | 2.0 ± 2.7 | 2.7 ± 10.5 | 10 ± 13.3 | −0.3 ± 1.7 | 35.0 ± 17.2 | −5.7 ± 5.6 | 3.6 ± 7.5 | 
Nc1c(S(=O)(=O)O)cc(Nc2cccc(S(N)(=O)=O)c2)c2c1C(=O)c1ccccc1C2=O [drawing 62] | 10 |  |  |  |  |  |  |  |  |  |  |  |  |  | 
SCEKRLGVRSCT (phage-displayed) [Compound C5] |  | 58.7 ± 14.4 | 76.5 ± 6.7 | 39.0 ± 3.8 | 73.8 ± 16.6 | 33.5 ± 7.2 | 47.8 ± 18.9 | 56.3 ± 4.1 | 16.7 ± 4.8 | 28.5 ± 5.2 | 3.2 ± 3.7 | 45.7 ± 5.2 | 97.2 ± 14.2 | 5.6 ± 5.3 | 
Nc1ccc(Nc2cc(S(=O)(=O)O)c(N)c3c2C(=O)c2ccccc2C3=O)cc1 [drawing 63] | 2.5 |  |  |  |  |  |  |  |  |  |  |  |  |  | 
